The domain aggregation screens of Martell et al. (2025)

Experiment: soluble fraction after stress (log2 fold change); higher = more stays soluble; pooled small domains, quantitative proteomics
Settings: stress: pH 4
How it was run: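 Pooled custom libraries of small protein domains were stressed at pH 4 and then measured by high-throughput quantitative proteomics. The fold change in the amount of each domain that stays soluble after the acid stress serves as a measure of aggregation propensity. Fold changes are given on a log2 scale, and higher values mean more of the domain stayed soluble.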

Sequence | soluble fraction (log2)
HMKNTVGEYRKLKSTTILYSNSDLTGTKYTYLPNTTVKILKNISSTVDYVYIKATNRYAYINIYAYT | 0.326
HMKEPQLGPVRKWSDQTGNFGIEAQFVKREGDNILLKRADQRTISIPLEKLSDADQEHLKQEEQKQAME | -0.312
HMSAGISVADVTNRTYDEGYNTLTAQHLLVNKVYEANETIPLDTIIRTDPVAGTKVPDNTSITVYVSSGK | -0.025
HMDSIKDQIYQILKEDILTGELRSGEQLVEQTIAARFNTSRSPVREAIKQLTGDGLVINITNKGTFVK | -0.0915
HMSPEWTPAEQDAIDKASEGEYGEALQRVLSGDYEPMDIPDALWGVQQVADKDTYSSIQKKIADIGN | 0.422
HMNIQGIFGRNLKQKRLEKGMTQEQLAEKAGVSTDTVKRYESGKYDGIRLDMAWYMANALDTPLQALLPP | 0.0744
HMNLNLDITTYKLEELENLLKLKPNYKQEQIFEAKTKMEKFILKSNLNESKREELYIFLDNIYNKLTNNLL | -1.34
HMKLSIEDLAAELIRKIEAGDIGNEQGKMPSERELLAIYPVSRYTLRQALNKLSKMGWIYQMQGRGSYIRF | -0.83
HMTSTEQQIEQFIGTLVSLGGSAGNQRLLEALGWQDSIYQRVKQQLIDDGRIRPGRGRGGSVVLAE | -0.302
HMKTEIGQAMRKLRKAKKMTQDTLAEKLGVAPANISRYEKGQQGIEVDKLPTLADALGVSVPEFFAIASG | -0.142
HMDTRKEREIALYEAALRLIASGVNPAAMKVQQIADEAGIGKGTVYEYFASKEEILHGMALH | -0.36
HMLQNLGFKPDLEIRHFPGIVLPDIHRSKKTISLLYTLLAGDIKKLPENEINYKDSKIISSYLWTLLRYH | 0.22
HMSADIGAEKAKTIALNHAGVSASNAVFLHAKLDYDDGRRTYEVEFYSGSKEYDYEIDAATGEILSYDFD | 0.327
HMINVGYKFKQIRENAGLTLKQVSAMSGLSVSFISQIERGVVDPSWSSLKKISAALNIKLKDLF | -0.449
HMNISALKGKIGEVYLKIPAHNAGKGKVLISLKGTHHELYAITRSGEDISSGEFVKVIEIEDEILVVEK | -0.537
HMLLTDGLERRIDGDKNLHIRISLPMLVKGQIKLAKSGNNESTVKGIFKIESYPGSHPRDVVTEIIEG | -0.0816
HMLLRSEDAIELGKSQLEDALAPYKIETLDTGTVQQLLDSLKLNSLESLYQEIGLGNRMSTIIAHRLLGE | -0.88
HMGEIILVPDVKAQGVSDARYTLNQAGLDAVIADSSYNRNSPPGAVLEQMPAPGSKVKSGHAIYLIINTT | 0.0604
HMYAEVTITIEKGMTSDSVSKLLYKAGIVDDAKEFNNYIIKAGKSTKILIGEFTIQKGASYDDIIKIIA | -0.133
HMVNIPEIAKKFGKSTSEVFEQIQIGEKHEMEHTNDPKKARKIALDHLSDDMDYYKKLKKLG | ≥ 0.43
HMTENLELLATGSLWTEPDGSGKIISYLIPGLRVKKLETNGIFYKIQLQNGLIGWADQSLFTIAEPK | -0.212
HMLPSDLDEGNRRRQLIEGAARLFRAKGFDGTSTRDIAAAAGMRSGSPFYHFDSKNALLYVVVQEGM | -0.115
HMYVKIAADAAMPYTIKRVVTDYSSAALDAAYDGSLPKWLTISSSTKDAGSGLYRHEIIYTVTAHPE | -0.942
HMGKAPREVQVGELLRVPALNAEGEVLRRDGESVELSIQGKKLRLPLAQLEAFSPRRFARRGEGKVRGRIE | 0.266
HMKNHSTFKSVLSNIEFPINERISGHAIQNPILGLIKADHPNFSSDQYIAISELNFYREKYISNYLLTEI | -1.6
HMDSVTMYATTGVNVRSGPSTSYSIVGGLDRGDKVTRIGTSGNWTKVVWGNGSAYVFSKYLQTGY | 0.232
HMTNSTGWSKSGGTQVTIREGETIYNLSRRYGVPAKSIMEANGIADATAVRAGQRISIPTYSY | 0.22
HMSYQNKLNYLINAFGGADNFQKLLGVGPSAISNYKSRKHLPLNQAKRLSKIAPQFGFSLDPHSLQIST | 0.0613
HMSYPTAVTQTTLNVRTGPGTQYERLGAFVENTEVIVLTRQPEWIQVRGMSGDKAIIGWVSARYLQMNP | 0.18
HMLVGKSVIMKTNESSSGMIAGKVNYWENIDGKIYLGINGKLYDIADVDTVLDNDYYDKLVN | -1.14
